Assay results taken from the supplement of paper PMC7877785.
± gives the uncertainty stated by the source.

Assay: self-splicing fitness, log relative to wild type (ln ratio); higher = more splicing; Tetrahymena group I intron in knt gene, E. coli kanamycin selection, DiMSum; sequences stand for … in CUCUCU…GGAGGGAAAAGUUAUCAGGCAUGCACCUGGUAGCUAGUCUUUAAACCAAUAGAUUGCAUCGGUUUAAAAGGCAAGACCGUCAAAUUGCGGGAAAGGGGUCAACAGCCGUUCAGUACCAAGUCUCAGGGGAAACUUUGAGAUGGCCUUGCAAAGGGUAUGGUAAUAAGCUGACGGACAUGGUCCUAACCACGCAGCCAAGUCCUAAGUCAACAGAUCUUCUGUUGAUAUGGAUGCAGUUCACAGACUAAAUGUCGGUCGGGGAAGAUGUAUUCUUCUCAUAAGAUAUAGUCGGACCUCUCCUUAAUGGGAGCUAGCGGAUGAAGUGAUGCAACACUGGAGCCGCUGGGAACUAAUUUGUAUGCGAAAGUAUAUUGAUUAGUUUUGGAGUACUCGUGGUCG
In short: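 Colonies from six replicate transformations of E. coli BL21(DE3) were pooled and amplicon-sequenced on an Illumina HiSeq 2500. The library placed an intron with all eight P1ex-region nucleotides randomised inside the knt kanamycin-resistance gene on pET-22b(+), and cells grew overnight at 37°C or 30°C on LB agar with or without 25 μg/mL kanamycin (plus 100 μg/mL carbenicillin, 50 μM IPTG, 0.2% rhamnose). Fitness is the DiMSum error-weighted combination of wild-type-normalised replicate fold changes, kanamycin versus none.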

Sequence	self-splicing fitness (ln) (30 °C)	self-splicing fitness (ln) (37 °C)
AUAUAGCAAUAUUACGCGCC	-1.51 ± 0.33	-1.35 ± 0.41
CGAAAGCAAUAUUACGGAGC	-4.16 ± 0.25	-2.22 ± 0.16
UCCAAGCAAUAUUACGUAUC	-4.43 ± 0.27	-1.93 ± 0.16
CACUAGCAAUAUUACGUGUG	-3.71 ± 0.14	-2.82 ± 0.16
GCAUAGCAAUAUUACGGAGC	-3.59 ± 0.25	-2.73 ± 0.23
GGCGAGCAAUAUUACGCGAU	-3.7 ± 0.26	-1.62 ± 0.19
UACGAGCAAUAUUACGAAAG	-2.75 ± 0.42	-1.29 ± 0.45
ACGUAGCAAUAUUACGCAUA	-1.82 ± 0.13	-1.2 ± 0.12
AGCCAGCAAUAUUACGCCGU	-2.54 ± 0.12	-1.76 ± 0.13
CUUGAGCAAUAUUACGUGCC	-2.26 ± 0.17	-2.75 ± 0.38
CUUUAGCAAUAUUACGGAGG	-1.75 ± 0.15	-1.29 ± 0.19
UGUCAGCAAUAUUACGUAGG	-0.865 ± 0.079	-0.275 ± 0.1
UCGUAGCAAUAUUACGUUGU	-4.46 ± 0.46	-2.43 ± 0.23
AGAGAGCAAUAUUACGAACA	-2.8 ± 0.36	-2.84 ± 0.31
ACCGAGCAAUAUUACGAUCG	-3.05 ± 0.33	-1.64 ± 0.27
CUGUAGCAAUAUUACGUAAU	-3.88 ± 0.3	-3.29 ± 0.37
AAUUAGCAAUAUUACGCGCC	-0.89 ± 0.23	-0.821 ± 0.34
CUGGAGCAAUAUUACGAUUC	-2.02 ± 0.29	–
UGUCAGCAAUAUUACGUGCG	-0.00445 ± 0.076	0.159 ± 0.092
GCUUAGCAAUAUUACGCGGU	-3.52 ± 0.2	-3.42 ± 0.28
AUCGAGCAAUAUUACGUACU	-1.09 ± 0.15	-0.28 ± 0.17
CGCUAGCAAUAUUACGGGCU	-1.85 ± 0.17	-1.33 ± 0.2
ACAUAGCAAUAUUACGUAGU	-2.54 ± 0.098	-2.32 ± 0.12
CGUAAGCAAUAUUACGACAU	-3.255 ± 0.022	-1.8 ± 0.035

Sequence	self-splicing fitness (ln) (30 °C)	self-splicing fitness (ln) (37 °C)
GAGCAGCAAUAUUACGAUUU	-0.179 ± 0.068	-0.211 ± 0.094
CGCUAGCAAUAUUACGUCAC	-4.44 ± 0.42	-3.4 ± 0.37
GAACAGCAAUAUUACGCUCC	-3.43 ± 0.36	-2.34 ± 0.43
UUCCAGCAAUAUUACGGCGA	-0.331 ± 0.076	-0.0354 ± 0.097
CCUUAGCAAUAUUACGAGGU	-4.03 ± 0.15	-2.52 ± 0.15
UCUUAGCAAUAUUACGCGGC	-2.44 ± 0.3	-0.722 ± 0.36
GGCCAGCAAUAUUACGACUC	-1.21 ± 0.11	0.0572 ± 0.13
AUGUAGCAAUAUUACGGAUG	-3.13 ± 0.31	-2.82 ± 0.41
AAGUAGCAAUAUUACGCAAG	-1.81 ± 0.17	0.657 ± 0.18
UAGGAGCAAUAUUACGGGCU	-3.12 ± 0.48	-1.64 ± 0.4
GCAAAGCAAUAUUACGUAAG	-1.92 ± 0.1	-0.569 ± 0.11
GUUUAGCAAUAUUACGCCAA	-1.57 ± 0.27	-1.58 ± 0.24
GUGCAGCAAUAUUACGUAGA	-2.02 ± 0.087	-0.647 ± 0.11
UGUUAGCAAUAUUACGUAGU	-3.48 ± 0.33	-2.22 ± 0.27
AUAUAGCAAUAUUACGUUAU	-3.02 ± 0.13	-1.65 ± 0.12
AAGCAGCAAUAUUACGGCCG	-0.9 ± 0.11	-0.057 ± 0.17
AGUUAGCAAUAUUACGGACA	-0.912 ± 0.12	0.372 ± 0.13
ACACAGCAAUAUUACGCCCA	-1.49 ± 0.075	-0.603 ± 0.073
AGUGAGCAAUAUUACGUGAA	-3.3 ± 0.36	-2.91 ± 0.19
CGGUAGCAAUAUUACGAUCG	-2.68 ± 0.22	-2.27 ± 0.32
UCUUAGCAAUAUUACGUCCA	-1.92 ± 0.13	-1.93 ± 0.18
CUCAAGCAAUAUUACGGCAG	-2.26 ± 0.068	-0.745 ± 0.092
UACAAGCAAUAUUACGUAAC	-4.15 ± 0.16	-2.28 ± 0.15
